In article PMC10388305, “Synthesis and Evaluation of a Monomethyl Auristatin E—Integrin αvβ6 Binding Peptide–Drug Conjugate for Tumor Targeted Drug Delivery” (Journal of Medicinal Chemistry, 2023):
Like-named read-outs stand apart in the source and are kept apart here.

What was measured:
BxPC-3 (+) cells = experiment: Cell binding assay, BxPC-3; assay type: cell-based; conditions: 1 h, 37 °C, γ-counter, n = 3
Source text: Binding to cells with minimal to no expression of integrin αvβ6 was low at 4.4 ± 0.1% to DX3puro cells and 7.9 ± 0.4% to pancreatic MIA PaCa-2 cells. Binding of [^64Cu]PDC-1 to DX3puroβ6 (+) and BxPC-3 (+) was reduced by adding increasing amounts of DOTA-PDC-1, illustrating that the αvβ6-selective uptake could be blocked (Figure S3). Internalization of [^64Cu]-PDC-1 into cells was high with >50% of the bound radioactivity internalized for all cells expressing the integrin αvβ6. In comparison, cell binding of [^64Cu]2 to DX3puroβ6 (+) cells was 58.8 ± 2.3, and 3.3 ± 0.4% to the DX3puro (−) cells.
Cell binding and internalization assay. Binding and internalization were determined as previously described. […] The fraction of bound radioactivity was determined with a γ-counter (by measuring cell pellet and combined supernatants). To determine the fraction of internalized radioactivity, the cells were re-pelleted, and re-suspended in acidic wash buffer (0.2 M sodium acetate, 0.5 M sodium chloride, pH = 2.5, 300 μL, 4 °C, 5 min) to release surface bound activity, followed by a wash with PBS (300 μL). The internalized fraction was determined with a γ-counter (cell pellet vs. radioactivity released into supernatant). A Wizard 1470 or Wizard 2 2470 automatic γ-counter (Perkin-Elmer, Waltham, MA) was used to measure radioactivity samples. […]

[1] = Blocking biodistribution, paired DX3puroβ6/DX3puro model; assay type: in vivo, mice; conditions: female, athymic nude, mouse, iv, total radioactivity, 4 h p.i., DOTA-2 (50 mg/kg, 205 nmol) i.v. 10 min prior, γ-counter, mean ± SD, n = 2
Procedure: Aliquots of the formulated [^64Cu]PDC-1 in isotonic 0.9% saline (4.81–5.74 MBq, 1.7–2.1 μg, 0.26–0.31 nmol, 100 μL, pH 7.2) were injected i.v. as described above. Following the conscious uptake period, the mice were anesthetized (5% isoflurane), euthanized, and dissected (n ≥ 3/model/time point [4, 24, and 48 h]; the 48 h time point also included the imaging animals sacrificed after the PET scans). Tissues were collected, washed, weighed, and radioactivity measured in a γ-counter. Calibrated, decay-corrected radioactivity was expressed as the percentage of injected dose per gram of tissue (% ID/g). Data are reported as mean ± SD. The mean weights and standard deviation of the DX3puroβ6/DX3puro paired tumor model biodistribution mice were 24.3 ± 1.4 g at 4 h, 28.2 ± 2.9 g at 24 h, and 27.7 ± 2.6 g at 48 h. The mean weights and standard deviation of the BxPC-3 tumor model biodistribution mice were 25.1 ± 1.9 g at 4 h, 27.0 ± 1.1 g at 24 h and 27.1 ± 3.2 g at 48 h. For in vivo blocking studies, DOTA-2 (50 mg/kg, 205 nmol, 1.4 mg in 100 μL 0.9% saline) was injected i.v. into two animals/tumor model 10 min prior to [^64Cu]PDC-1. The animals were sacrificed after 4 h, tissues collected, washed, weighed, and radioactivity measured in a γ-counter. The mean weights and standard deviation for the blocking mice were 24.6 ± 0 and 27.9 ± 0.3 g for the DX3puroβ6/DX3puro paired and BxPC-3 tumor models, respectively.
Blocking biodistribution data of [64Cu]PDC-1 in paired DX3puroβ6/DX3puro and BxPC-3 tumor models.
Tumor Model DX3puroβ6/DX3puro BxPC-3
Table S6. Blocking biodistribution data of [ 64Cu]PDC-1 in paired DX3puroβ6/DX3puro and BxPC-3 tumor
models. Tissue uptake is expressed as the mean of the percentage of injected dose per gram of tissue ±
SD (n = 2/model, n/a = not applicable. P = 0.53 for DX3puroβ6 vs. DX3puro; P = 0.52 for BxPC-3 vs.

With `CC[C@H](C)[C@@H]([C@@H](CC(=O)N1CCC[C@H]1[C@H](OC)[C@@H](C)C(=O)N[C@H](C)[C@@H](O)c1ccccc1)OC)N(C)C(=O)[C@@H](NC(=O)[C@H](C(C)C)N(C)C(=O)OCc1ccc(NC(=O)[C@H](CCCNC(N)=O)NC(=O)[C@@H](NC(=O)CCOCCOCCNC(=O)CCN2C(=O)CC(SC[C@H](NC(=O)CN3CCN(CC(=O)O)CCN(CC(=O)O)CCN(CC(=O)O)CC3)C(=O)NCCOCCOCCOCCOCCOCCOCCOCCOCCOCCOCCOCCOCCOCCOCCOCCOCCOCCOCCOCCOCCOCCOCCOCCOCCOCCOCCOCCOCCC(=O)N[C@@H](CC(N)=O)C(=O)N[C@@H](C)C(=O)N[C@H](C(=O)N3CCC[C@H]3C(=O)N[C@@H](CC(N)=O)C(=O)N[C@@H](CC(C)C)C(=O)N[C@@H](CCCNC(=N)N)C(=O)NCC(=O)N[C@@H](CC(=O)O)C(=O)N[C@@H](CC(C)C)C(=O)N[C@@H](CCC(N)=O)C(=O)N[C@H](C(=O)N[C@@H](CC(C)C)C(=O)N[C@@H](C)C(=O)N[C@@H](CCC(N)=O)C(=O)N[C@@H](CCCNC(=N)N)C(=O)N[C@H](C(=O)N[C@@H](C)C(=O)N[C@@H](CCCNC(=N)N)C(=O)N[C@H](C(=O)NCCOCCOCCOCCOCCOCCOCCOCCOCCOCCOCCOCCOCCOCCOCCOCCOCCOCCOCCOCCOCCOCCOCCOCCOCCOCCOCCOCCOCCC(N)=O)[C@@H](C)O)C(C)C)C(C)C)C(C)C)C2=O)C(C)C)cc1)C(C)C` (stereo partly drawn) [[^64Cu]PDC-1, metal not drawn] the Cell binding (BxPC-3 (+) cells) was 62.0 ± 1.0%, the tissue uptake at 4 h ([1]; DX3puro (αvβ6 −) tumor, read-out: Tumor (αvβ6 −) DX3puro uptake, blocked) was 0.42 ± 0.04 %ID/g and the tissue uptake at 4 h ([1]; DX3puroβ6 (αvβ6 +) tumor, read-out: Tumor (αvβ6 +) DX3puroβ6 uptake, blocked) was 0.39 ± 0.04 %ID/g. It also gave a tissue uptake at 4 h ([1]; blood, read-out: Blood uptake, blocked) of 0.08 ± 0.02 %ID/g, a tissue uptake at 4 h ([1]; bone, read-out: Bone uptake, blocked) of 0.1 ± 0.03 %ID/g and a tissue uptake at 4 h ([1]; brain, read-out: Brain uptake, blocked) of 0.02 %ID/g. It also gave a tissue uptake at 4 h ([1]; gall bladder, read-out: Gall Bladder uptake, blocked) of 0.28 ± 0.4 %ID/g, a tissue uptake at 4 h ([1]; heart, read-out: Heart uptake, blocked) of 0.17 ± 0.03 %ID/g and a tissue uptake at 4 h ([1]; kidney, read-out: Kidney uptake, blocked) of 36.4 ± 5.43 %ID/g. For the same compound, the tissue uptake at 4 h ([1]; large intestines, read-out: Large Intestines uptake, blocked) was 0.51 ± 0.1 %ID/g, the tissue uptake at 4 h ([1]; liver, read-out: Liver uptake, blocked) was 1.39 ± 0.45 %ID/g and the tissue uptake at 4 h ([1]; lung, read-out: Lung uptake, blocked) was 0.39 ± 0.09 %ID/g. It also gave a tissue uptake at 4 h ([1]; muscle, read-out: Muscle uptake, blocked) of 0.04 %ID/g, a tissue uptake at 4 h ([1]; pancreas, read-out: Pancreas uptake, blocked) of 0.08 ± 0.01 %ID/g and a tissue uptake at 4 h ([1]; skin, read-out: Skin uptake, blocked) of 0.29 ± 0.02 %ID/g. It also gave a tissue uptake at 4 h ([1]; small intestines, read-out: Small Intestines uptake, blocked) of 0.36 ± 0.02 %ID/g, a tissue uptake at 4 h ([1]; spleen, read-out: Spleen uptake, blocked) of 0.19 ± 0.01 %ID/g and a tissue uptake at 4 h ([1]; stomach, read-out: Stomach uptake, blocked) of 0.27 ± 0.06 %ID/g.
